Experiment [1] addresses T1, ανβ3 integrin receptor on U87MG human glioma cells (human, UniProt P06756 31-1048; P05106 27-788).
T1 construct: whole, on cells; Endogenous receptor on U87MG cells; also called ανβ3 receptor
As to the kind of experiment: competitive cell-binding assay on U87MG cells, displacement of 125I-echistatin. (In general: In a radioligand displacement assay an active substance lowers the binding of a labelled ligand.)
Experimental: Briefly, the U87MG cell line was cultured in DMEM medium containing 10% (v/v) fetal bovine serum supplemented with penicillin (100 μg/ml), streptomycin (100 μg/ml), non-essential amino acids (100 mM) and sodium pyruvate (1 mM) at 37° C. with 5% CO₂. […] After incubation, the plate was washed three times with PBS containing 0.1% BSA, and the radioactivity was measured by γ-counting. The IC₅₀ values were calculated by nonlinear regression analysis.

The target of experiment [2] is T2, APMA-activated recombinant human MMP-2 (human, UniProt P08253 110-660, limits assumed).
T2 sequence (looked up): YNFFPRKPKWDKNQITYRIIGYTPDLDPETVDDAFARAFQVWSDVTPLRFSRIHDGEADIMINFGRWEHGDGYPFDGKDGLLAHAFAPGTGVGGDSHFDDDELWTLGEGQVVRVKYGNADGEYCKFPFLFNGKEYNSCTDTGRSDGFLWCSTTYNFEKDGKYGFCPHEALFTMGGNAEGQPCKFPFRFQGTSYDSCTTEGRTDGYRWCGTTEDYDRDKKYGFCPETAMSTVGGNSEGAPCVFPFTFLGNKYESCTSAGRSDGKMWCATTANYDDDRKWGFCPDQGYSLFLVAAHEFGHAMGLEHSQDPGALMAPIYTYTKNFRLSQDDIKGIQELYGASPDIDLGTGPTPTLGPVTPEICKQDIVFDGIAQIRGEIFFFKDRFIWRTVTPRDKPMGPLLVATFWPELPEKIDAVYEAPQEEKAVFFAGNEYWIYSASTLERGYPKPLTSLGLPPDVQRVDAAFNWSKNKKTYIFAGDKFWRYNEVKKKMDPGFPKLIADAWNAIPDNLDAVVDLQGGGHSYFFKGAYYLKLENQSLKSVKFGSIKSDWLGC
Briefly: cell-based or functional assay.

Here are results for two molecules from patent US20140249468A1 (UNITED STATES OF AMERICA AS REPRESENTED BY THE SECRETARY …, published 2014).

Square brackets hold non-standard residues; d marks the D form. Ends that are not written are not given here.

For orientation: IC50 means the concentration needed to halve the response being measured. Low readings indicate greater potency in that assay, high ones weaker potency in that assay.

T1 sequence (P06756 31-1048, chain 1 of 2): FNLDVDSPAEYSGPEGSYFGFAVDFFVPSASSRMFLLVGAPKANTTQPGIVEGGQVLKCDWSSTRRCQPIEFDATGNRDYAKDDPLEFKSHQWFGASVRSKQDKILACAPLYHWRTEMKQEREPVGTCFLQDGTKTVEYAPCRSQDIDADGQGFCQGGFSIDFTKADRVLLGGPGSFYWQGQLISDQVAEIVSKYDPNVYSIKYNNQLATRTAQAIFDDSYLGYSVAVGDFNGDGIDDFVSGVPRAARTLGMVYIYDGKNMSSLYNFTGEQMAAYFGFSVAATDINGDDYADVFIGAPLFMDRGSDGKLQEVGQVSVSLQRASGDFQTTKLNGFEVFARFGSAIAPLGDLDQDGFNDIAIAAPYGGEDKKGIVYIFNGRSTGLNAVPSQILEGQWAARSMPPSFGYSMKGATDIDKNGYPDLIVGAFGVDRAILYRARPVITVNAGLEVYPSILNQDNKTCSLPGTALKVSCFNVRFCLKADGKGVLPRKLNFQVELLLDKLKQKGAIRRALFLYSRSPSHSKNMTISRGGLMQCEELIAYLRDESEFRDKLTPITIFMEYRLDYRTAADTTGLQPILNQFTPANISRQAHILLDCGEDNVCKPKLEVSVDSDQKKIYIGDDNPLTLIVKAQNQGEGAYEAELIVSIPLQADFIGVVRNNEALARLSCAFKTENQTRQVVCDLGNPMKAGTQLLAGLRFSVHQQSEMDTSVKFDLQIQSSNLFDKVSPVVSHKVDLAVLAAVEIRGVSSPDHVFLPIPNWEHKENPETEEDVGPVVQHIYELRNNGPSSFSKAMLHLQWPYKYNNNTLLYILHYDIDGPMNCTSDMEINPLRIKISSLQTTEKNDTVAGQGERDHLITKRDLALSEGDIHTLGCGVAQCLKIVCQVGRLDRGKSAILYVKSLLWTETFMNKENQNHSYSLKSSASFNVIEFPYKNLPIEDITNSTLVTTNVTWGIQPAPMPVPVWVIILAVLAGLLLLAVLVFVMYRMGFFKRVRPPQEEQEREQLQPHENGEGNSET
T1 sequence (P05106 27-788, chain 2 of 2): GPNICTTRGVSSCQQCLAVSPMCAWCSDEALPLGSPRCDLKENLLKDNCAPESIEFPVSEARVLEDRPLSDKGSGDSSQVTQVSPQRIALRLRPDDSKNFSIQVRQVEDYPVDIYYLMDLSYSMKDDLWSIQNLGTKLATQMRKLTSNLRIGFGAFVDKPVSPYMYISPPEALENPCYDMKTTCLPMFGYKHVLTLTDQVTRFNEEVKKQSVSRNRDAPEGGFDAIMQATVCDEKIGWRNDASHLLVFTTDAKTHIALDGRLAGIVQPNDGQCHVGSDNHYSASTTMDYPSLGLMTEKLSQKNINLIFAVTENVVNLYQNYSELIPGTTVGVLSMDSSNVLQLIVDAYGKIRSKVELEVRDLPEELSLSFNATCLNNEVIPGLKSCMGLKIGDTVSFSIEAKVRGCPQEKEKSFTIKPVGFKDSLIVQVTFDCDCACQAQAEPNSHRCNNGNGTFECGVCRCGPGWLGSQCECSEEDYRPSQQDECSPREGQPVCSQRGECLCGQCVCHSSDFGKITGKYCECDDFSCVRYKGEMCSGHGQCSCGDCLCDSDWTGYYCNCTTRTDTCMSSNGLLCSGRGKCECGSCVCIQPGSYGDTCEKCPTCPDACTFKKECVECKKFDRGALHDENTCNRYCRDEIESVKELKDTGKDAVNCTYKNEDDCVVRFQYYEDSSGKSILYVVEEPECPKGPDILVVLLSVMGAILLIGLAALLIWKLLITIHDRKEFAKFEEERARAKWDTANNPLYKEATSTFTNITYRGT

B1: compound 7 (peptide)
peptide: cyclo(RGD[dY]K(CW800))
notes: Made by conjugating CW800 NHS ester to c(RGDyK); also called CW800-labelled c(RGDyK)
For B1, the IC50 in experiment [1] amounted to 456 nM.

B2: compound 4 (MMP-P-RGD) (peptide)
peptide 1: {Cy5.5}-GPLGVRGK(BHQ‑3)GG
peptide 2: RGDYK
modifications: not fully specified (some residues); also: chain 1 C-terminal carboxyl conjugated to chain 2, c(RGDyK), linkage site not given here, head-to-tail to a chain's N/C-terminus
Regarding B2, in experiment [2], the “recovery of the NIR fluorescence signal” value was above 20 fold.
